First the molecules themselves.
B2: recombinant Bcd1pFL, purified (natural protein, S. cerevisiae, UniProt P38772 1-366, looked up)
chain: MAVLCGVCGIKEFKYKCPRCLVQTCSLECSKKHKTRDNCSGQTHDPKEYISSEALKQADDDKHERNAYVQRDYNYLTQLKRMVHVQKMDARMKNKRVLGPVGGHNSNFKKRRYDIDEDDRDSTECQRIIRRGVNCLMLPKGMQRSSQNRSKWDKTMDLFVWSVEWILCPMQEKGEKKELFKHVSHRIKETDFLVQGMGKNVFQKCCEFYRLAGTSSCIEGEDGSETKEERTQILQKSGLKFYTKTFPYNTTHIMDSKKLVELAIHEKCIGELLKNTTVIEFPTIFVAMTEADLPEGYEVLHQEPRPLEHTSTLNKFIDNAREEEDAEEDSQPTEEPVQKETQDASDSDSDSDDDYNPGLSMDFLTA
notes: Bcd1p, S. cerevisiae, full length; Detected by native MS with two zinc ions (42,752 Da); also called Bcd1FL; full-length Bcd1p
B5: recombinant fragment Rtt106p-M (Rtt106p_(65-320)), purified (domain or fragment, S. cerevisiae, UniProt P40161 65-320, looked up)
chain: DEISETNTIFKLEGVSVLSPLRKKLDLVFYLSNVDGSPVITLLKGNDRELSIYQLNKNIKMASFLPVPEKPNLIYLFMTYTSCEDNKFSEPVVMTLNKENTLNQFKNLGLLDSNVTDFEKCVEYIRKQAILTGFKISNPFVNSTLVDTDAEKINSFHLQCHRGTKEGTLYFLPDHIIFGFKKPILLFDASDIESITYSSITRLTFNASLVTKDGEKYEFSMIDQTEYAKIDDYVKRKQMKDKSMSEELKAKSKSKG
notes: Rtt106p, yeast, residues 65-320 (tandem PH1 and PH2 domains); Native MS mass 29,695 Da; also called 65-320 (M) domain of Rtt106p

Where no end group is shown, it is not given here.

Experiment [1] has as its target T1, recombinant fragment Rtt106p-M (Rtt106p_(65-320)), purified (S. cerevisiae, UniProt P40161 65-320).
T1 chain: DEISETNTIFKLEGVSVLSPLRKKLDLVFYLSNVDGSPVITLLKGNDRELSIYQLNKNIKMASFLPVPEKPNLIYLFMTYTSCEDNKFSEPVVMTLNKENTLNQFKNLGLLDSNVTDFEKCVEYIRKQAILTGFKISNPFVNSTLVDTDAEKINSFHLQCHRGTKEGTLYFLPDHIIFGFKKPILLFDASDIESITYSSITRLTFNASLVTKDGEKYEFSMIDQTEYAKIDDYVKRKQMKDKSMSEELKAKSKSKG
Briefly: ITC. A general note: In ITC the heat of successive injections is recorded.

Experiment [2] concerns the target T2, Rtt106p_(65-301) (S. cerevisiae, UniProt P40161 65-301).
T2 chain: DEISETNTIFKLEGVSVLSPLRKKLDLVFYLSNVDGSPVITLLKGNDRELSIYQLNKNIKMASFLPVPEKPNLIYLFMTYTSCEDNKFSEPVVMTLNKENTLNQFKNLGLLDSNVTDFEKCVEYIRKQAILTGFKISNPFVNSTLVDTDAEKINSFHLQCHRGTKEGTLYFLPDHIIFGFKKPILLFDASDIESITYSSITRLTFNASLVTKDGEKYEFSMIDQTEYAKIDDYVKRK
Briefly: ITC.

Experiment [3] addresses T3, Rtt106p_(65-301) (S. cerevisiae, UniProt P40161 65-301).
T3 construct: Rtt106p, yeast, residues 65-301 (tandem PH domains); also called Rtt106_(65-301); source: E. coli BL21 pRARE2, purified
T3 sequence (looked up): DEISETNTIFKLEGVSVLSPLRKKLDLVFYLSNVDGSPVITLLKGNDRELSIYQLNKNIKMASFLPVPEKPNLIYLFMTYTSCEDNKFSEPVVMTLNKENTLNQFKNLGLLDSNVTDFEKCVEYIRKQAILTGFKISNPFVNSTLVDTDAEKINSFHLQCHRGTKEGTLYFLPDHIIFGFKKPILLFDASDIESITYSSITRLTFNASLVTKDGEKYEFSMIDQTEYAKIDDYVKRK
Briefly: ITC; 293 K, 10 mM NaPi pH 7.5, 150 mM NaCl, 0.5 mM TCEP; 40 μM titrated, 400 μM titrant. The following applies: both partners purified.

Experiment [4] has as its target B5. The experiment can be described thus: native MS; individual partners and co-purified complex in 150 mM ammonium acetate pH 7.5, nanoESI, nondenaturing conditions. The following applies: both partners purified.
Experiment [5] addresses T4, Rtt106p_(65-301) bound to Bcd1p_(120-303) (S. cerevisiae, UniProt P40161 65-301; P38772 120-303).
T4 chain 1: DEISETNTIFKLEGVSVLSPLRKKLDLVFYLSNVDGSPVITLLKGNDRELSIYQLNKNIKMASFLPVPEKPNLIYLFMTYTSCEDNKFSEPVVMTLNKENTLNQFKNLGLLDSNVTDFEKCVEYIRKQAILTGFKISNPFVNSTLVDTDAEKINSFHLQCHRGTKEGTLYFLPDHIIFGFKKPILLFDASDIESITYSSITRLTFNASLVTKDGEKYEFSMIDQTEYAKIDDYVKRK
T4 chain 2: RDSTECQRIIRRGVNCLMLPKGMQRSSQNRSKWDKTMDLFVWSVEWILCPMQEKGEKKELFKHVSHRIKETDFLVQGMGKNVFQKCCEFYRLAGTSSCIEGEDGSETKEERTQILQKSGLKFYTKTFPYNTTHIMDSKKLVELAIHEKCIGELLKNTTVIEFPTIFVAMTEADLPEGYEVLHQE
Briefly: ITC.

Experiment [6] deals with T3, Rtt106p_(65-301). The experiment can be described thus: ITC; H3K56ac peptide (2 mM) as the titrant into 200 μM Rtt106p_(65-301) with or without Bcd1p_(120-303). Conditions: both partners purified.
The target in experiment [7] is T5, Rtt106p_(65-301) bound to Bcd1p_(120-303) (S. cerevisiae, UniProt P40161 65-301; P38772 120-303).
T5 construct: Rtt106p, yeast, residues 65-301; as the chain of m19; as the chain of m18; Formed before titration with the H3K56ac peptide; source: E. coli BL21 pRARE2, purified proteins, mixed; not shown: His6, N-terminal, cleaved; copies: 1 + 1
T5 sequence (looked up) 1: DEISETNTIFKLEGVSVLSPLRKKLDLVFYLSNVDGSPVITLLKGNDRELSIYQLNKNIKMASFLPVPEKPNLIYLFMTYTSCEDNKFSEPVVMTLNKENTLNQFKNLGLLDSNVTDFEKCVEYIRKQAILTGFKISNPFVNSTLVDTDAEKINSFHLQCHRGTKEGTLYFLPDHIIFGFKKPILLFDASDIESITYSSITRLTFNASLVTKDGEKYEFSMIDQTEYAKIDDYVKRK
T5 sequence (looked up) 2: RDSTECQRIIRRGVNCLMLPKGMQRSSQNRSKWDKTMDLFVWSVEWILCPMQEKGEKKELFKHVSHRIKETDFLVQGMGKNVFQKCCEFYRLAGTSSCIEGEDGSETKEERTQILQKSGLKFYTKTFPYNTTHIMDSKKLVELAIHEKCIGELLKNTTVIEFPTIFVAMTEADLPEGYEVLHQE
The description is as above. The following applies: both partners purified.

Experiment [8] deals with B2. The experiment can be described thus: ITC; 293 K, 10 mM NaPi pH 7.5, 150 mM NaCl, 0.5 mM TCEP; 40 μM titrated, 400 μM titrant. Conditions: both partners purified.

B1: Bcd1p_(120-303) (domain or fragment, S. cerevisiae, UniProt P38772 120-303, looked up)
chain: RDSTECQRIIRRGVNCLMLPKGMQRSSQNRSKWDKTMDLFVWSVEWILCPMQEKGEKKELFKHVSHRIKETDFLVQGMGKNVFQKCCEFYRLAGTSSCIEGEDGSETKEERTQILQKSGLKFYTKTFPYNTTHIMDSKKLVELAIHEKCIGELLKNTTVIEFPTIFVAMTEADLPEGYEVLHQE
notes: Tag removal is told for the NMR preparation; the preparation for ITC is not described separately; source: E. coli BL21 pRARE2, purified (TALON, PreScission cleavage, gel filtration); not shown: His6, N-terminal, cleaved
For the molecule B1, the figures for the dissociation constant (Kd) in experiment [1], in experiment [2] and in experiment [3] were 1.16 µM, 1.63 µM and 0.94 ± 0.06 µM, respectively.
For B2, in experiment [4], the stoichiometry N (commonly the number of molecules, sites or subunits per partner or assembly) was 1.

B3: Bcd1p120-366 (protein)
chain: RDSTECQRIIRRGVNCLMLPKGMQRSSQNRSKWDKTMDLFVWSVEWILCPMQEKGEKKELFKHVSHRIKETDFLVQGMGKNVFQKCCEFYRLAGTSSCIEGEDGSETKEERTQILQKSGLKFYTKTFPYNTTHIMDSKKLVELAIHEKCIGELLKNTTVIEFPTIFVAMTEADLPEGYEVLHQEPRPLEHTSTLNKFIDNAREEEDAEEDSQPTEEPVQKETQDASDSDSDSDDDYNPGLSMDFLTA
On to B3, for which the dissociation constant Kd (commonly the equilibrium constant for the complex coming apart) in experiment [1] turned out to be 1.74 µM.

B4: H3K56ac (IRRFQKacSTELL) peptide (peptide)
peptide: IRRFQK(Ac)STELL
notes: histone H3 stretch around lysine 56, acetylated at K56; also called acetylated peptide; source: synthetic peptide, bought: Proteogenix
As for B4, the Kd came out at 649 µM in experiment [5] and 714 µM in experiment [2]. For the same molecule, the binding result in experiment [6] and in experiment [7] was “binds” throughout.
Turning to B5, the dissociation constant (Kd) in experiment [8] was found to be 1.17 ± 0.17 µM.

The values above are taken from paper PMC7994586, “The box C/D snoRNP assembly factor Bcd1 interacts with the histone chaperone Rtt106 and controls its transcription dependent activity” (Nature Communications, 2021).
